The values below come from doi:10.1101/2021.10.20.465166.

Some targets named below: C/EBPα p42 (full length) (UniProt P49715 1-358); C/EBPα bZIP domain (UniProt P49715 282-345); C/EBPα p30 (UniProt P49715-3 1-239).
What all share (test): EMSA

C/EBPα p42 (full length), sequence (P49715 whole entry, the tested form may be a part): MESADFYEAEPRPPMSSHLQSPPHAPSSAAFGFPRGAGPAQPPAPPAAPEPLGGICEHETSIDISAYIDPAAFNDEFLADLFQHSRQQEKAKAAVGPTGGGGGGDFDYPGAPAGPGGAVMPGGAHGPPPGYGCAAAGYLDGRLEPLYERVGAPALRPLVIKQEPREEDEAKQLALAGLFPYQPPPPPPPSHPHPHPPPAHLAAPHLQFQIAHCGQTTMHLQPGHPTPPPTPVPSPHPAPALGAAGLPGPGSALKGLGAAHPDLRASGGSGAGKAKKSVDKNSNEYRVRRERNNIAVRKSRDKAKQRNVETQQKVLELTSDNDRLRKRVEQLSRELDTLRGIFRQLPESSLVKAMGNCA
C/EBPα p30, sequence (P49715 120-358): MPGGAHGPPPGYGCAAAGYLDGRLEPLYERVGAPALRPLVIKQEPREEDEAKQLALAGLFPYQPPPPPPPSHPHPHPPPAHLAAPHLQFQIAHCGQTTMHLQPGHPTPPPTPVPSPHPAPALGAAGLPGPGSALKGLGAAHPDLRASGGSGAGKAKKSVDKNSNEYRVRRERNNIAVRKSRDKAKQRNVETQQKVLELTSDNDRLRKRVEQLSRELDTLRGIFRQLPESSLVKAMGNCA
C/EBPα bZIP domain, sequence (P49715 282-345): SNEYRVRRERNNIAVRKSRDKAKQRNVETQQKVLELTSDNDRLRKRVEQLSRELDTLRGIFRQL

B1: CTBP1 intron 2 RNA (CTBP1i2) (ssRNA)
RNA: UUCCCACUCACCCAGCACCC
On to B1, for which the binding result with C/EBPα p42 (full length) is “binds”; in the data set with C/EBPα bZIP domain, “no binding”; in the data set with C/EBPα p30 it was “binds”.

B2: CTBP1 intron 2 negative RNA (CTBP1i2N) (structured_RNA)
RNA: GGGACCCGGUUCCCACUCACCCAGC
Turning to B2, the binding result with C/EBPα p42 (full length) and with C/EBPα p30 was “no binding” in each case.

B3: PU.1 intron 4 RNA (PU.1i4) (ssRNA)
RNA: CCCCCACCCAGCCAGGCCAAC
In the case of B3, the figures for the binding result with C/EBPα p42 (full length), with C/EBPα bZIP domain and with C/EBPα p30 were “binds”, “no binding” and “binds”, respectively.
